{"source": "patent US11497805B2", "about": "“Toll-like receptor 2 agonists and vaccines and uses thereof” (The Provost, Fellows, Foundation Scholars & the Other …, priority 2014, dated 2022)", "molecules": {"B1": {"name": "BP2992: full length B. pertussis lipoprotein BP2992, ~16 kDa (protein, listed as Bordetella pertussis)", "chain": "NYMHSPSVVAGRARRLLAVAAVAGSVAVLAGCANPSASSGVYTYGQAQREQIVRTGTVTGVRPITIQNDKSSGVGLVAGGALGGVAGNAVGGGTGRTIATVGGVILGALAGNAIENRAGKSSGYEITVRLDNGETRVVAQEADVPISVGQRVQVISGAGPTRVTPY"}, "B2": {"name": "BP1569: full length B. pertussis lipoprotein BP1569, ~40 kDa, TLR2 agonist (protein, listed as Bordetella pertussis)", "chain": "MRMNKRHAGASALMALALLAGCSDVNQLLGNEESVDYKSTRRGDPLSIPPDLTQANNDPRYKAPASGTATYSQFQQQGLQQQASAGQNTNVLPERADMRVERDGDLRWLVIERPPEQLFSKVVDFWTDTGFTVSVNNPQAGIIETDWAENRAKIPESWLRQVLGSVLETAWDSGEREKFRTRVERVNGHTEIYITHNQMLEKRVGSDGGQVQWTHGKEDPGLNAAMLARLMVYLGTDVDAARKLVAQAEAAPQAPKVQSVRAEGAMLVVDESFDRAWRRVGVALDSGGFAVDDRDRSAGEYFVRYVDTDTGAQNEQPGFFSRLFSSDKKAQAPQYRIRLTGSGTQTQVTVLDANGQRDSSATAQRMLSVLKDKMV"}}, "key": {"TLR2 [1]": {"target": "T1, TLR2 (Mus musculus, UniProt Q9EPQ1+Q9QUN7)", "T1 construct": "Bone marrow derived dendritic cells (DCs) were prepared by culturing bone marrow cells obtained from the femur and tibia of mice; endogenous in cells; host or cells: bone marrow-derived dendritic cells from C3H/HeJ mice (A3, A25) or C57BL/6 mice (A13)", "T1 sequence (Q9QUN7 25-784)": "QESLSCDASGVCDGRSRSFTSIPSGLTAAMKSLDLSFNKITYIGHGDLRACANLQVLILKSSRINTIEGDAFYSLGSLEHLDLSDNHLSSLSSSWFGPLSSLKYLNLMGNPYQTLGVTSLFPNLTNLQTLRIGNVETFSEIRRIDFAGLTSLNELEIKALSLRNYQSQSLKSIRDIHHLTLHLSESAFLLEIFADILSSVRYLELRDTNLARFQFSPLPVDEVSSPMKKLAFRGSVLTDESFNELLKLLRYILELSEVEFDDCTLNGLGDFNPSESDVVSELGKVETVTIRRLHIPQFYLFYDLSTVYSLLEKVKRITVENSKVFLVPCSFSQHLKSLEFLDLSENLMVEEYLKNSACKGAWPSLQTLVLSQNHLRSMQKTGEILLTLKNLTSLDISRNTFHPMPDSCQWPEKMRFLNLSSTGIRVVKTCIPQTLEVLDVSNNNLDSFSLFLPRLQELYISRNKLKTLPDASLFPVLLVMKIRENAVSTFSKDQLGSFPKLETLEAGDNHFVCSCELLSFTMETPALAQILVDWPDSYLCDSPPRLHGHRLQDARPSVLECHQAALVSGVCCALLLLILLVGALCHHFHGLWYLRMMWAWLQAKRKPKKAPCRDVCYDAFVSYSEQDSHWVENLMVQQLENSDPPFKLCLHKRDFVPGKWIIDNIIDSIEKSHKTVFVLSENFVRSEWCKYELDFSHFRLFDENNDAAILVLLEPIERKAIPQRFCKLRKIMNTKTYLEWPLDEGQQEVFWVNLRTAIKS", "T1 sequence (Q9EPQ1 26-795)": "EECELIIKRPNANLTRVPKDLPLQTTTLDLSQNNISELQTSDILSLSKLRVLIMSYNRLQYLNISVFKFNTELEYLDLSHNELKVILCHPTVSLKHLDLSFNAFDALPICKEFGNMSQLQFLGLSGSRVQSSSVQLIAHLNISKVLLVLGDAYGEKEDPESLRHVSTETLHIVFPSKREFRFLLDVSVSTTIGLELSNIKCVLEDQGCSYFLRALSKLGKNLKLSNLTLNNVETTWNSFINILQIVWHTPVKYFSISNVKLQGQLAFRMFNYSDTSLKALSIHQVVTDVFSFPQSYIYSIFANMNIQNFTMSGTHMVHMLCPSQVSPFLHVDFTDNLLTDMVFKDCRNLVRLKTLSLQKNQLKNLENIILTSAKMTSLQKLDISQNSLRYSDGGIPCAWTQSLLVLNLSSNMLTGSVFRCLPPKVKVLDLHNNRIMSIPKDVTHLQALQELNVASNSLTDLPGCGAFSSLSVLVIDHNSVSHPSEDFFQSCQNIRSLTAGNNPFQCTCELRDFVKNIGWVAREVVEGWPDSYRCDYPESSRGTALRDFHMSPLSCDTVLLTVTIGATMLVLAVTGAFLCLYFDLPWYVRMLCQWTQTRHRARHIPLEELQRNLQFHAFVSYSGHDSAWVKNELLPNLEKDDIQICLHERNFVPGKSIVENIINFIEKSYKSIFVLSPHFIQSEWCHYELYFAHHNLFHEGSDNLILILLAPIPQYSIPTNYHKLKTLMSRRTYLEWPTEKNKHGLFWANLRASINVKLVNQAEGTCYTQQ", "assay": "BP2992 cytokine production by DC with anti-TLR2 antibody", "type": "cell-based, mice", "conditions": "with or without anti-TLR2 T2.5 2.5 μg/ml, 24 hours", "protocol": "After 24 hours IL-6 production was measured by ELISA. […] After 24 hours TNF-α production was measured by ELISA."}, "TLR2 [2]": {"tested_on": "TLR2", "assay": "BP2992 activity as TLR2 ligand (data not shown)", "source_text": "C-terminal histidine versions of the putative lipoproteins were constructed and expressed in E. coli by IPTG induction. BP1569 and BP2992 were successfully expressed and purified by nickel affinity followed by ion-exchange chromatography. […] Therefore, the inventors adopted a strategy of carrying out all initial studies with lipoproteins in TLR4 defective cells or mice and then synthesized lipopeptide versions of the lipoproteins for more thorough immunological analysis."}, "[3]": {"tested_on": "dendritic cells from C3H/HeJ mice", "assay": "BP2992 maturation and cytokine production by dendritic cells", "type": "cell-based", "conditions": "24 h", "protocol": "Lane 1: 5 ng BP2992; lane 2: 10 ng BP2992."}, "[4]": {"tested_on": "human peripheral blood mononuclear cells (PBMC)", "assay": "BP2992 cytokine production from human PBMC", "type": "cell-based", "conditions": "0.01-1 μg/ml, 24 h, two donors", "protocol": "PBMC from two human donors (A and B) were treated with BP2992 (0.01-1 μg/ml), After 24 h, the concentrations of TNF-α in supernatants were determined by ELISA."}, "DC from C3H/HeJ mice": {"tested_on": "DC from C3H/HeJ mice", "assay": "DC maturation: surface expression of MHC class II, CD80, CD86 by flow cytometry", "type": "cell-based", "conditions": "100 ng/ml, 24 hours vs medium only", "protocol": "(§1) Lipase-treated or untreated BP1569 (100 ng/ml) was used to stimulate BMDC from C3H/HeJ mice.\nFollowing stimulation, DC were stained with CD11c (clone N418; eBioscience), MHCII (clone M5/114.15.2 ebioscience), CD80 (clone 16-10A1 eBioscience) and CD86 (clone […] eBioscience). Samples were analyzed with a FACS DIVA and FloJo software.\n(§2) The present inventors examined the capacity of pertussis lipoprotein to activate innate immune cells in vitro using bone marrow-derived DCs from TLR4-defective C3H/HeJ mice. […] Furthermore, stimulation of DCs with BP1569 for 24 hours enhanced surface expression of MHC class II, CD80 and CD86 detectable by flow cytometry (FIG. 2C)."}, "BMDC from C3H/HeJ mice": {"tested_on": "BMDC from C3H/HeJ mice", "assay": "Lipase treatment of lipoprotein before stimulation of DC", "type": "cell-based", "conditions": "lipase from Aspergillus or Pseudomonas, 18 h", "protocol": "as §1\n(§3) Blocking antibodies were used against TLR2 to determine if the proteins can activate TLR2 specifically. […] Lipase treatment was used to confirm that the immunostimulatry effects of BP1569 were due the presence of the characteristic acyl side chain of the lipoprotein. The recombinant lipoprotein was incubated with two separate lipases for 18 h prior to stimulation of DC. Lipase treatment abolished BP1569-induced IL-12p40 and IL-6 production (FIG. 2E), but had no effect on cytokine production induced by the TLR9 agonist CpG (data not shown), confirming that BP1569 contains lipid side chains capable of triggering TLR2-induced inflammatory cytokine production."}, "[5]": {"tested_on": "bone marrow-derived DCs from TLR4-defective C3H/HeJ mice", "assay": "Cytokine production by bone marrow-derived DC stimulated with BP1569 (ELISA)", "type": "cell-based", "conditions": "BP1569 100 and 1000 ng/ml, 24 h", "protocol": "as §1\n(§4) Bone marrow derived dendritic cells (DCs) were prepared by culturing bone marrow cells obtained from the femur and tibia of mice in complete RPMI (cRPMI, RPMI containing 10% fetal calf serum, 100 U/ml penicillin, 100 μg/ml streptomycin, 2 mM 1-glutamine (Invitrogen), and 50 μM 2-ME (Sigma-Aldrich) supplemented with GM-CSF 40 ng/ml. Cells were re-cultured with fresh medium containing 40 ng/ml GM-CSF every 3 d for a period of 8 d. DC were seeded at 1×10^6 cells per ml 24 hr prior to stimulation. ELISA assays were performed using R&D kits according to the manufacturer's instructions. Spleen cells from C3H/HeJ mice were seeded at 2×10^6 cells per ml and stimulated with Pam3Cys4 (120nM) or BP1569 (120 nM) for the indicated times, with or without addition of T2.5-anti-TLR2 antibody or an isotype control (Hycult Biotech). For p38 activation assays, samples were lysed with RIPA buffer and SDS-PAGE was performed followed by Western blotting with anti-phospho-p38 and β-actin antibodies (Cell Signaling).\nas §2"}, "human TLR1": {"target": "T2, human TLR1 (Homo sapiens, UniProt O60603+Q15399)", "T2 construct": "endogenous in cells; host or cells: human PBMC", "T2 sequence (Q15399 25-786)": "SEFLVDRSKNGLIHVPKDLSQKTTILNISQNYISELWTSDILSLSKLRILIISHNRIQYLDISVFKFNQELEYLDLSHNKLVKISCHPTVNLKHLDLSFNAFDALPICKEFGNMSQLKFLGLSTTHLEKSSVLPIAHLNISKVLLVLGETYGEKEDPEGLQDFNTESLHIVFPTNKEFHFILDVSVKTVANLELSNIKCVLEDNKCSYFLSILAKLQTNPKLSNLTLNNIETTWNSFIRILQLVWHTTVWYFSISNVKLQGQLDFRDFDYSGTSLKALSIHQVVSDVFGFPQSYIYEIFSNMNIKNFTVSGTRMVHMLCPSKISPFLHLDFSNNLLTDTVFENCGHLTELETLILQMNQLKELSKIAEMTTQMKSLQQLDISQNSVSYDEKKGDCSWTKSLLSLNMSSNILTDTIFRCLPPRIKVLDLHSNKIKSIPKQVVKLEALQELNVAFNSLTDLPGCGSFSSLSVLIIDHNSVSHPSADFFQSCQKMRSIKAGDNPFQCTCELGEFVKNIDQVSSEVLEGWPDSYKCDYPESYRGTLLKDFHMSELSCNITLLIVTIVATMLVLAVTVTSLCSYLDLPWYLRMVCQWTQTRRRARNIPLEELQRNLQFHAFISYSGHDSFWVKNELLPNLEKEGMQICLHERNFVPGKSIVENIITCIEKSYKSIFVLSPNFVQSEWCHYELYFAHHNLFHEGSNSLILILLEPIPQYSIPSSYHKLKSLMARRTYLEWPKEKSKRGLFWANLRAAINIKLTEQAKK", "T2 sequence (O60603 21-784)": "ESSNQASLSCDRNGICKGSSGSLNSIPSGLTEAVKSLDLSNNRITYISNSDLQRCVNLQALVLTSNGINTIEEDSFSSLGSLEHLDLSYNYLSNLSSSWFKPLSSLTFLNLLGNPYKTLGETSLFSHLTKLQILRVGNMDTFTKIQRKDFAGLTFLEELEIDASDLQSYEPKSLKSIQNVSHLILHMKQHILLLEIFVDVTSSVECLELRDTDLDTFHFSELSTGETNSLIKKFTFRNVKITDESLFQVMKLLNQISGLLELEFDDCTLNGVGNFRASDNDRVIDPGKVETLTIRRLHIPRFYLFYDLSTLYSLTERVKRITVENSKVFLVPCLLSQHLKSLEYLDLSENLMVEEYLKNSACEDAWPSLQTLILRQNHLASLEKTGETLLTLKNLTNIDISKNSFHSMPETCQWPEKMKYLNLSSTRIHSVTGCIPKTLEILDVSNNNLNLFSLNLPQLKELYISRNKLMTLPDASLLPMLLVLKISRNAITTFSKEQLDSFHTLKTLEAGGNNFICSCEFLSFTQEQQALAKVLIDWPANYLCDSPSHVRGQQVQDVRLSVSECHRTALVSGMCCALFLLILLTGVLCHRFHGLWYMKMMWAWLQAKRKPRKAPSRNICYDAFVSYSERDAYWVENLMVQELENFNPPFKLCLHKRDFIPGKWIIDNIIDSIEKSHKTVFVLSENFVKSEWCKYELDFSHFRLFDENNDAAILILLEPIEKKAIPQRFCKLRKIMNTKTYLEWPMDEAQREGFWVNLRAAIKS", "assay": "BP1569-induced IL-6 in human PBMC with TLR1 blocking antibody", "type": "cell-based", "conditions": "100 ng/ml, 24 h", "protocol": "(§5) Luciferase activity was quantified after 24 h. […] IL-8 production was quantified after 24 h. […] After 24 h, the concentrations of IL-6 in supernatants were determined by ELISA.\n(§6) Cytokine production by TLR2 requires activation of the transcription factors NF-κB and p38 MAP kinase. To determine if BP1569 activates NF-κB, HEK 293T cells stably expressing TLR2, but devoid of TLR4, were transfected with an NF-κB luciferase reporter construct. […] To assess activation of the MAP kinase pathway, spleen cells from C3H/HeJ mice were stimulated with BP1569. […] TLR agonists can bind to TLR1/2 or TLR2/6 heterodimers, therefore, the role of these TLRs using specific blocking antibodies to human TLR1 and TLR6 was examined."}, "TLR2 [6]": {"target": "T1, TLR2", "assay": "BP1569-induced TNF-α production by DC with TLR2 blocking antibody", "type": "cell-based, mice", "conditions": "BP1569 100 ng/ml, 24 h, anti-TLR2 T2.5 2.5 μg/ml", "protocol": "as §1, §3"}, "human TLR6": {"target": "T3, human TLR6 (Homo sapiens, UniProt Q9Y2C9)", "T3 construct": "endogenous in cells; host or cells: human PBMC", "T3 sequence (O60603 21-784 partner)": "as the sequence (O60603 21-784) above", "T3 sequence (Q9Y2C9 32-796)": "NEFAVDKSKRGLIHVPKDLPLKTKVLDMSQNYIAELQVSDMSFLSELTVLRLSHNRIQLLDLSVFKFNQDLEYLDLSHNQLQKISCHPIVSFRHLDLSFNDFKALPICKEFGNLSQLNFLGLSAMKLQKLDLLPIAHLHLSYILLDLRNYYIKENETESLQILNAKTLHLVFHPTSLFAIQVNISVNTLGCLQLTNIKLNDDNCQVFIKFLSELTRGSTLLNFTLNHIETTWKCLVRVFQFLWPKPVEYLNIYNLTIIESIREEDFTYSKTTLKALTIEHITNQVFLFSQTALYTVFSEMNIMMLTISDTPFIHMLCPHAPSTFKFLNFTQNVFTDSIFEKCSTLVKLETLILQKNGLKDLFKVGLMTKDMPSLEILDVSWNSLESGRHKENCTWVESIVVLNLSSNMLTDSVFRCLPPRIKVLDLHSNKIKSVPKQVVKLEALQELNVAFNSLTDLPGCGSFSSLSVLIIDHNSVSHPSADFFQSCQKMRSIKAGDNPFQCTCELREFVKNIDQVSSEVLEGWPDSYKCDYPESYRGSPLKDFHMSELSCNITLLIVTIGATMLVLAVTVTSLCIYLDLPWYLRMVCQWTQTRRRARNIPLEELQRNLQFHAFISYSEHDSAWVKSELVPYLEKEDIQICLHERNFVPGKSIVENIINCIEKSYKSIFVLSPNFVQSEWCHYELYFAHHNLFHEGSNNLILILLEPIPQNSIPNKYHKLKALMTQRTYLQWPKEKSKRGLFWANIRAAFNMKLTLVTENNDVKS", "assay": "BP1569-induced IL-6 in human PBMC with anti-TLR6 antibody", "type": "cell-based", "conditions": "100 ng/ml, 24 h", "protocol": "as §5, §6"}, "C3H/HeJ mice [7]": {"tested_on": "C3H/HeJ mice", "assay": "Antigenicity of BP1569: footpad immunization, lymph node cell re-stimulation", "type": "in vivo", "conditions": "10 μg footpad", "protocol": "(§7) After 3 h serum IL-12 and IL-6 concentrations were quantified by ELISA. […] After seven days the draining lymph node was harvested and cells were stimulated with BP1569 (2 μg/ml). […] After seven days the draining lymph node was harvested and cells were stimulated with total heat killed B. pertussis 1-100×10^6/ml).\nC3H/HeJ mice were injected into the footpad with BP1569 (10 μg) diluted in PBS or with PBS only. After seven days the draining lymph node was harvested and the lymph node cells were stimulated with either BP1569 (2 μg/ml) or heat killed B. pertussis pertussis (1-100×10^6/ml). After 3 days of culture, the concentration of IFN-γ in supernatants was quantified by ELISA.\nThe possibility that BP1569 was immunogenic in vivo and capable of inducing B. pertussis-specific immune responses was examined. C3H/HeJ mice were injected into the footpad with BP1569 (10 μg) diluted in PBS or with PBS only. After seven days the draining lymph node was harvested and the lymph node cells were stimulated with either BP1569 (2 μg/ml) or heat killed B. pertussis."}, "human TLR2 [8]": {"target": "T4, human TLR2 (Homo sapiens, UniProt O60603+Q15399)", "T4 construct": "expressed in transfected cells; host or cells: HEK 293T", "T4 sequence (O60603 21-784)": "as the sequence (O60603 21-784) above", "T4 sequence (Q15399 25-786)": "as the sequence (Q15399 25-786) above", "assay": "NF-κB luciferase reporter assay in HEK 293T cells stably expressing TLR2", "type": "cell-based", "conditions": "100 ng/ml, HEK 293T-TLR2, devoid of TLR4", "protocol": "as §5\nHEK 293T cells stably expressing human TLR2 were transfected with an NF-κB luciferase construct as described previously (21) and stimulated overnight with the indicated concentrations of BP1569.\nas §6"}, "C3H/HeJ mice [9]": {"tested_on": "C3H/HeJ mice", "assay": "Cytokine induction in vivo by BP1569 (serum ELISA)", "conditions": "70 μg intraperitoneally, 3 h, versus PBS controls", "protocol": "as §7\nC3H/HeJ mice were treated intraperitoneally with BP1569 (70 μg) or PBS control and serum cytokines were measured by ELISA after 3h.\nC3H/HeJ mice were treated intraperitoneally with BP1569 (70 μg) and serum cytokines were measured after 3 h."}, "human TLR2 [10]": {"target": "T4, human TLR2", "assay": "IL-8 production by TLR2 transfected HEK 293T cells", "type": "cell-based", "conditions": "HEK 293T-TLR2, 24 h", "protocol": "as §5, §6"}, "p38 MAP kinase": {"tested_on": "p38 MAP kinase", "assay": "p38 phosphorylation in spleen cells (Western blot)", "type": "cell-based", "conditions": "spleen cells from C3H/HeJ mice", "protocol": "as §5, §4\nCytokine production by TLR2 requires activation of the transcription factors NF-κB and p38 MAP kinase. […]"}}, "data": [{"molecule": "B1", "values": [{"measurement": "TLR2 dependence of pro-inflammatory cytokine production by DCs (IL-6, TNF-α)", "setting": "TLR2 [1]", "result": "in a TLR2 dependent manner"}, {"measurement": "ligand activity for TLR2", "setting": "TLR2 [2]", "result": "immunologically active ligand for TLR2"}, {"measurement": "maturation of dendritic cells (MHC class II, CD80, CD86)", "setting": "[3]; 100 ng/ml", "result": "induces"}, {"measurement": "pro-inflammatory cytokine production by dendritic cells", "setting": "[3]; 50, 100 and 1000 ng/ml", "result": "induces"}, {"measurement": "pro-inflammatory cytokine production (TNF-α) from human PBMC", "setting": "[4]", "result": "induces"}]}, {"molecule": "B2", "values": [{"measurement": "surface expression of CD80", "setting": "DC from C3H/HeJ mice", "result": "enhanced"}, {"measurement": "surface expression of CD86", "setting": "DC from C3H/HeJ mice", "result": "enhanced"}, {"measurement": "surface expression of MHC class II", "setting": "DC from C3H/HeJ mice", "result": "enhanced"}, {"measurement": "effect of lipase treatment on induced IL-6 production", "setting": "BMDC from C3H/HeJ mice; 100 ng/ml on DC", "result": "abolished"}, {"measurement": "effect of lipase treatment on induced IL-12p40 production", "setting": "BMDC from C3H/HeJ mice; then DC stimulation", "result": "abolished"}, {"measurement": "IL-6 production by DC", "setting": "[5]", "result": "induced robust"}, {"measurement": "IL-12 production by DC", "setting": "[5]", "result": "induced robust"}, {"measurement": "IL-23 production by DC", "setting": "[5]", "result": "induced robust"}, {"measurement": "TNF-α production by DC", "setting": "[5]", "result": "induced robust"}, {"measurement": "BP1569-induced IL-6 production with TLR1 blocking antibody", "setting": "human TLR1", "result": "significantly reduced"}, {"measurement": "BP1569-induced TNF-α production in the presence of the TLR2 blocking antibody", "setting": "TLR2 [6]", "result": "completely abrogated"}, {"measurement": "BP1569-induced IL-6 production with anti-TLR6 antibody", "setting": "human TLR6", "result": "little effect"}, {"measurement": "BP1569-specific IFN-γ by lymph node cells", "setting": "C3H/HeJ mice [7]; day 7, re-stimulated with BP1569 2 μg/ml", "result": "induced at significant levels"}, {"measurement": "IFN-γ upon re-stimulation with heat killed B. pertussis", "setting": "C3H/HeJ mice [7]; day 7 lymph node cells", "result": "produced IFN-γ"}, {"measurement": "luciferase activity (NF-κB reporter)", "setting": "human TLR2 [8]", "result": "significant increase"}, {"measurement": "serum IL-6", "setting": "C3H/HeJ mice [9]", "result": "Significant concentrations"}, {"measurement": "serum IL-12", "setting": "C3H/HeJ mice [9]", "result": "Significant concentrations"}, {"measurement": "IL-8 production", "setting": "human TLR2 [10]", "result": "increased"}, {"measurement": "p38 phosphorylation", "setting": "p38 MAP kinase; 15 minutes following stimulation", "result": "enhanced"}, {"measurement": "p38 phosphorylation with anti-TLR2 blocking antibody", "setting": "p38 MAP kinase; T2.5 2.5 μg/ml", "result": "inhibited"}]}]}
